{
  "source": "paper PMC9482650",
  "about": "“Quantitative fragmentomics allow affinity mapping of interactomes” (Nature Communications, 2022)",
  "test_in_all_cases": "holdup assay",
  "set-up_in_all_cases": "key: below the threshold = too weak to quantify, mostly under pKd 3.1 to 4",
  "key": {"PICK1, Q9NRD5": {"biological_target": "PICK1, Q9NRD5", "sequence (Q9NRD5 17-115)": "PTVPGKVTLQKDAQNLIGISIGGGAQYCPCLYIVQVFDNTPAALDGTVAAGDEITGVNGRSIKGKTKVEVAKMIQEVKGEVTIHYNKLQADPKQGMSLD"}, "GRIP1_7, Q9Y3R0": {"biological_target": "T1, GRIP1_7, Q9Y3R0", "T1 sequence (Q9Y3R0 999-1096, limits assumed, looked up)": "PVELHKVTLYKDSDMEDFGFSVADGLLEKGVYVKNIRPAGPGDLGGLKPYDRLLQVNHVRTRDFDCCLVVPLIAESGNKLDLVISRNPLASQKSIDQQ"}, "SHANK1, Q9Y566": {"biological_target": "T2, SHANK1, Q9Y566", "T2 sequence (Q9Y566 658-767, limits assumed, looked up)": "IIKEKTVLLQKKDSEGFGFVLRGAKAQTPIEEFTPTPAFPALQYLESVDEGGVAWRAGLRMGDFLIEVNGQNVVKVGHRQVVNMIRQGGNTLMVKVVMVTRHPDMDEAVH"}, "PTPN13_1, Q12923": {"biological_target": "T3, PTPN13_1, Q12923", "T3 sequence (Q12923 1088-1188, limits assumed, looked up)": "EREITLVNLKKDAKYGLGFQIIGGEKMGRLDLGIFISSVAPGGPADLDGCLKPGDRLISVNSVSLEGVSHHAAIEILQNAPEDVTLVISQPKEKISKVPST"}, "SNX27, Q96L92": {"biological_target": "SNX27, Q96L92"}, "MAGI2_6, Q86UL8": {"biological_target": "MAGI2_6, Q86UL8", "sequence (Q86UL8 1141-1229)": "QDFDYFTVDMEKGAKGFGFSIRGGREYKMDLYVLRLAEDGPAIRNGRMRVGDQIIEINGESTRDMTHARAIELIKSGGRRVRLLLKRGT"}, "DLG4_3, P78352": {"biological_target": "DLG4_3, P78352", "sequence (P78352 306-403)": "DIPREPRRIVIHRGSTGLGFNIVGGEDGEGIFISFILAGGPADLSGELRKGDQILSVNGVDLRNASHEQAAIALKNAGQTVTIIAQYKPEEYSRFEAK"}, "PTPN3, P26045": {"biological_target": "PTPN3, P26045", "sequence (P26045 505-587)": "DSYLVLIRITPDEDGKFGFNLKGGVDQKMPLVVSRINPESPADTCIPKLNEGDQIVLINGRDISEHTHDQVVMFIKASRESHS"}, "Inadl_6, Q8NI35": {"biological_target": "Inadl_6, Q8NI35", "sequence (Q8NI35 1058-1167)": "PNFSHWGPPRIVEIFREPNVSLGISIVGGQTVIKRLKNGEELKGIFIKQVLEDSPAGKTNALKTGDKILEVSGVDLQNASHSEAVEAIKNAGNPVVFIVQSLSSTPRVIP"}, "MPDZ_10, O75970": {"biological_target": "T4, MPDZ_10, O75970", "T4 sequence (O75970 1624-1722, limits assumed, looked up)": "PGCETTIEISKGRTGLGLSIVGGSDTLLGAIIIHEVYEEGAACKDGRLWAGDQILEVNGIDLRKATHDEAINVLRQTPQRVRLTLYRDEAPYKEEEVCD"}, "DLG5_1, Q8TDM6": {"biological_target": "DLG5_1, Q8TDM6", "sequence (Q8TDM6 617-713)": "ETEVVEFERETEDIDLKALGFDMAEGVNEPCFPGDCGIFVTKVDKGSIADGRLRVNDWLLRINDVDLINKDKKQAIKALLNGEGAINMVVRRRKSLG"}, "FRMPD2_2, Q68DX3": {"biological_target": "FRMPD2_2, Q68DX3", "sequence (Q68DX3 944-1038)": "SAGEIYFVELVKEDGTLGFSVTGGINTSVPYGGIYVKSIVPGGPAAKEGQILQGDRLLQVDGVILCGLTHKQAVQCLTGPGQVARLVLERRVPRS"}, "SNTG1, Q9NSN8": {"biological_target": "T5, SNTG1, Q9NSN8", "T5 sequence (Q9NSN8 52-150, limits assumed, looked up)": "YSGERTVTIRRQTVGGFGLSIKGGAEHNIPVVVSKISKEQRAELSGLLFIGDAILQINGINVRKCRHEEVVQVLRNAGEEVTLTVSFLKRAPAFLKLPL"}, "MAGI1_2, Q96QZ7": {"biological_target": "MAGI1_2, Q96QZ7", "sequence (Q96QZ7 456-580)": "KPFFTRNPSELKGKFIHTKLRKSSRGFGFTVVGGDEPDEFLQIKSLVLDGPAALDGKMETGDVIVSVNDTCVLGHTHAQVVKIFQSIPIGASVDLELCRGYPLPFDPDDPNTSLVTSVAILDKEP"}, "APBA1_2, Q02410": {"biological_target": "T6, APBA1_2, Q02410", "T6 sequence (Q02410 742-832, limits assumed, looked up)": "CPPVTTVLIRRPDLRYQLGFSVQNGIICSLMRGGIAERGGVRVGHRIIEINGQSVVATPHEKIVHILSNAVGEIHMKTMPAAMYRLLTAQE"}, "MPP2, Q14168": {"biological_target": "T7, MPP2, Q14168", "T7 sequence (Q14168 180-250, limits assumed, looked up)": "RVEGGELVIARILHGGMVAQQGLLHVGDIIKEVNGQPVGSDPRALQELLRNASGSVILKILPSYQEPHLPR"}, "RAPGEF6, Q8TEU7": {"biological_target": "T8, RAPGEF6, Q8TEU7", "T8 sequence (Q8TEU7 525-625, limits assumed, looked up)": "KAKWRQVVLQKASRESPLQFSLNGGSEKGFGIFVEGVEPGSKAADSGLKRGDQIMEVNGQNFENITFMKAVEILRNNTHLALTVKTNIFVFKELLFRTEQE"}, "IL16_1, Q14005": {"biological_target": "IL16_1, Q14005", "sequence (Q14005 210-306)": "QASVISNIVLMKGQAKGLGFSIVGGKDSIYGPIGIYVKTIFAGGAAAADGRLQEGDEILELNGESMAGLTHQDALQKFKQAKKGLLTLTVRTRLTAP"}, "MPP7, Q5T2T1": {"biological_target": "T9, MPP7, Q5T2T1", "T9 sequence (Q5T2T1 134-230, limits assumed, looked up)": "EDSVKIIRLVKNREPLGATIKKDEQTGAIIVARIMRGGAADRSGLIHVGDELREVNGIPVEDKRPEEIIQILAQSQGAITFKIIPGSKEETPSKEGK"}, "LNX1_1, Q8TBB1": {"biological_target": "LNX1_1, Q8TBB1", "sequence (Q8TBB1 261-371)": "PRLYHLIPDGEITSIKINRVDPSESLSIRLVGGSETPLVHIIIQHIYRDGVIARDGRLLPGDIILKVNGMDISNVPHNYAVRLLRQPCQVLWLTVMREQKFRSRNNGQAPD"}, "NHERF4_4, Q86UT5": {"biological_target": "NHERF4_4, Q86UT5", "sequence (Q86UT5 464-550)": "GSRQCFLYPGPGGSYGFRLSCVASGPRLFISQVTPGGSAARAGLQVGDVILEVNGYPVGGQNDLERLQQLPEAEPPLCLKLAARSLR"}, "NHERF4_1, Q86UT5-2": {"biological_target": "NHERF4_1, Q86UT5-2", "sequence (Q86UT5 other isoform, or with tags, fused parts or gaps)": "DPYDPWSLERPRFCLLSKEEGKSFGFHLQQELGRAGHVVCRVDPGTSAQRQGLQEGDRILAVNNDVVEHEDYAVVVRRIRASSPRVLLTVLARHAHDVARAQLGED"}, "Inadl_4, Q8NI35": {"biological_target": "Inadl_4, Q8NI35", "sequence (Q8NI35 547-651)": "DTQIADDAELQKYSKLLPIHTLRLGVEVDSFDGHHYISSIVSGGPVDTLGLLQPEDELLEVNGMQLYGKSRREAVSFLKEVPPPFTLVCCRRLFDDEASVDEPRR"}, "LIN7B, Q9HAP6": {"biological_target": "T10, LIN7B, Q9HAP6", "T10 sequence (Q9HAP6 88-185, limits assumed, looked up)": "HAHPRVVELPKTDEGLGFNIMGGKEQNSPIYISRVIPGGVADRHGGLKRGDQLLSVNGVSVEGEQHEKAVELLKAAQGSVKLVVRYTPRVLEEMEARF"}, "SNTA1, Q13424": {"biological_target": "T11, SNTA1, Q13424", "T11 sequence (Q13424 82-180, limits assumed, looked up)": "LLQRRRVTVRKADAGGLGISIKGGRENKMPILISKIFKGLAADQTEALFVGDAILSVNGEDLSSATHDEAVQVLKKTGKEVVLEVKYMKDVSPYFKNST"}, "NHERF3_3, Q5T2W1": {"biological_target": "T12, NHERF3_3, Q5T2W1", "T12 sequence (Q5T2W1 238-333, limits assumed, looked up)": "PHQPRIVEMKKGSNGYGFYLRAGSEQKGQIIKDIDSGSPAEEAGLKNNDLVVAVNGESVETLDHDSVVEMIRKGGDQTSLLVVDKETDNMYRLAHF"}, "[1]": {"settings": "plain residues with an end cap or a label only (N-terminal biotin on a linker: ado-ado)"}, "[2]": {"settings": "plain residues with an end cap or a label only (N-terminal biotin on a linker: ttds)"}},
  "data": [
    {"binder": "ELKAEDEVQI", "note": "[DCHS2, Q6V1P9]", "values": [
      {"measurement": "pKd", "setting": "PICK1, Q9NRD5; [1]", "result": 4.13},
      {"measurement": "pKd", "setting": "GRIP1_7, Q9Y3R0; [1]", "result": "below the threshold"},
      {"measurement": "pKd", "setting": "SHANK1, Q9Y566; [1]", "result": "below the threshold"},
      {"measurement": "pKd", "setting": "PTPN13_1, Q12923; [1]", "result": "below the threshold"},
      {"measurement": "pKd", "setting": "SNX27, Q96L92; [1]", "result": "below the threshold"},
      {"measurement": "pKd", "setting": "MAGI2_6, Q86UL8; [1]", "result": "below the threshold"},
      {"measurement": "pKd", "setting": "DLG4_3, P78352; [1]", "result": "below the threshold"},
      {"measurement": "pKd", "setting": "PTPN3, P26045; [1]", "result": "below the threshold"},
      {"measurement": "pKd", "setting": "Inadl_6, Q8NI35; [1]", "result": "below the threshold"},
      {"measurement": "pKd", "setting": "MPDZ_10, O75970; [1]", "result": "below the threshold"},
      {"measurement": "pKd", "setting": "DLG5_1, Q8TDM6; [1]", "result": "below the threshold"},
      {"measurement": "pKd", "setting": "FRMPD2_2, Q68DX3; [1]", "result": "below the threshold"},
      {"measurement": "pKd", "setting": "SNTG1, Q9NSN8; [1]", "result": "below the threshold"},
      {"measurement": "pKd", "setting": "MAGI1_2, Q96QZ7; [1]", "result": "below the threshold"},
      {"measurement": "pKd", "setting": "APBA1_2, Q02410; [1]", "result": "below the threshold"},
      {"measurement": "pKd", "setting": "MPP2, Q14168; [1]", "result": "below the threshold"},
      {"measurement": "pKd", "setting": "RAPGEF6, Q8TEU7; [1]", "result": "below the threshold"},
      {"measurement": "pKd", "setting": "IL16_1, Q14005; [1]", "result": "below the threshold"},
      {"measurement": "pKd", "setting": "MPP7, Q5T2T1; [1]", "result": 4},
      {"measurement": "pKd", "setting": "LNX1_1, Q8TBB1; [1]", "result": "below the threshold"},
      {"measurement": "pKd", "setting": "NHERF4_4, Q86UT5; [1]", "result": "below the threshold"},
      {"measurement": "pKd", "setting": "NHERF4_1, Q86UT5-2; [1]", "result": "below the threshold"},
      {"measurement": "pKd", "setting": "Inadl_4, Q8NI35; [1]", "result": "below the threshold"},
      {"measurement": "pKd", "setting": "LIN7B, Q9HAP6; [1]", "result": 3.48},
      {"measurement": "pKd", "setting": "SNTA1, Q13424; [1]", "result": "below the threshold"},
      {"measurement": "pKd", "setting": "NHERF3_3, Q5T2W1; [1]", "result": "below the threshold"}
    ]},
    {"binder": "PPRQRSETQV", "note": "[HPV82-E6, Q9IR59]", "values": [
      {"measurement": "pKd", "setting": "PICK1, Q9NRD5; [2]", "result": "below the threshold"},
      {"measurement": "pKd", "setting": "GRIP1_7, Q9Y3R0; [2]", "result": "below the threshold"},
      {"measurement": "pKd", "setting": "SHANK1, Q9Y566; [2]", "result": "below the threshold"},
      {"measurement": "pKd", "setting": "PTPN13_1, Q12923; [2]", "result": "below the threshold"},
      {"measurement": "pKd", "setting": "SNX27, Q96L92; [2]", "result": 4.67},
      {"measurement": "pKd", "setting": "MAGI2_6, Q86UL8; [2]", "result": 3.46},
      {"measurement": "pKd", "setting": "DLG4_3, P78352; [2]", "result": 4.43},
      {"measurement": "pKd", "setting": "PTPN3, P26045; [2]", "result": 4.31},
      {"measurement": "pKd", "setting": "Inadl_6, Q8NI35; [2]", "result": "below the threshold"},
      {"measurement": "pKd", "setting": "MPDZ_10, O75970; [2]", "result": "below the threshold"},
      {"measurement": "pKd", "setting": "DLG5_1, Q8TDM6; [2]", "result": "below the threshold"},
      {"measurement": "pKd", "setting": "FRMPD2_2, Q68DX3; [2]", "result": "below the threshold"},
      {"measurement": "pKd", "setting": "SNTG1, Q9NSN8; [2]", "result": 3.99},
      {"measurement": "pKd", "setting": "MAGI1_2, Q96QZ7; [2]", "result": 5.54},
      {"measurement": "pKd", "setting": "APBA1_2, Q02410; [2]", "result": "below the threshold"},
      {"measurement": "pKd", "setting": "MPP2, Q14168; [2]", "result": "below the threshold"},
      {"measurement": "pKd", "setting": "RAPGEF6, Q8TEU7; [2]", "result": "below the threshold"},
      {"measurement": "pKd", "setting": "IL16_1, Q14005; [2]", "result": "below the threshold"},
      {"measurement": "pKd", "setting": "MPP7, Q5T2T1; [2]", "result": "below the threshold"},
      {"measurement": "pKd", "setting": "LNX1_1, Q8TBB1; [2]", "result": "below the threshold"},
      {"measurement": "pKd", "setting": "NHERF4_4, Q86UT5; [2]", "result": "below the threshold"},
      {"measurement": "pKd", "setting": "NHERF4_1, Q86UT5-2; [2]", "result": "below the threshold"},
      {"measurement": "pKd", "setting": "Inadl_4, Q8NI35; [2]", "result": "below the threshold"},
      {"measurement": "pKd", "setting": "LIN7B, Q9HAP6; [2]", "result": "below the threshold"},
      {"measurement": "pKd", "setting": "SNTA1, Q13424; [2]", "result": 4.15},
      {"measurement": "pKd", "setting": "NHERF3_3, Q5T2W1; [2]", "result": "below the threshold"}
    ]}
  ]
}
